Assay results published in publication PMC3420021, “Crystallographic Analysis of Polypyrimidine Tract-Binding Protein-Raver1 Interactions Involved in Regulation of Alternative Splicing” (Structure(London, England:1993), 2011).

B1: Raver1 PRI3 12-residue sequence as it stands in the PRI3-RRM2 chimera (peptide)
peptide: PGVSLLGAPPKD
notes: core SLLGAPP is numbered 1-7; In the crystal it was joined on one chain with m3 (chimera m1); source: E. coli BL21 (DE3), purified as part of the PRI3-RRM2 chimera
B2: Raver1 PRI4 12-residue sequence as it stands in the PRI4-RRM2 chimera (peptide)
peptide: SSEGLLGLGPGP
notes: core GLLGLGP is numbered 1-7; In the crystal it was joined on one chain with m3 (chimera m5); source: E. coli BL21 (DE3), purified as part of the PRI4-RRM2 chimera

Biological target: T1, PTB RRM2 (residues 156-285 of PTB) as it stands in the PRI-RRM2 chimeras (UniProt P26599 156-285)
T1 construct: the linker residues had no density; source: E. coli BL21 (DE3), purified as part of the PRI-RRM2 chimeras
Experiment: crystal structure; PRI sequence fused as N-terminal extension to PTB 156-285 on one chain; sitting drop, 0.2 M NaI, 0.1 M Bis-Trispropane pH 6.5, 20% PEG 3350; two complexes in the asymmetric unit
Conditions: both partners purified

T1 sequence (P26599 156-285, change not shown): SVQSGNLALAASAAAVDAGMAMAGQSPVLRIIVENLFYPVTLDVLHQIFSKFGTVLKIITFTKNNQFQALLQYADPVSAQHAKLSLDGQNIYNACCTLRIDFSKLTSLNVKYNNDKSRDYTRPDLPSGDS

| binding result | Binder |
| --- | --- |
| binds | B1 |
| binds | B2 |
